Several values for one entry are separate records, joined by “and”; a condition that tells them apart may be missing. Equal values may be shown once.
B1: B.VHH14: second anti-STAT3 sdAb, named VHH14 (SEQ ID NO. 4) (protein)
VHH: QVQLVESGGGSVQAGGSLRLSCVASTYTGCMGWFRQAPGKEREGVAALSSRGFAGHYTDSVKGRFSISRDYVKNAVYLQMNTVKPEDAAMYYCAAREGWECGETWLDRTAGGHTYWGQGTLVTVSS
modifications: Camelid
B2: anti-TNF-alpha VHH62: third anti-TNF-alpha sdAb (SEQ ID NO. 47) (protein)
VHH: QVQLVESGGGPVQAGETLRLSCTASGFTFAEADMGWYRQAPGHECELVSTITTEGITSEASSYYADSVRGRFTISRDNAKNMVYLQMNSLKPEDTAVYYCAPDPYAYSTYSDYCSWAQGTQGTLVTVSS
modifications: Camelid
B3: anti-TNF-alpha VHH69: second anti-TNF-alpha sdAb (SEQ ID NO. 46) (protein)
VHH: EVQLVESGGGSVLAGGSLRLSCVASGFTSRYNYMAWFRQAPGKEREGVATIGTASGSADYYGSVKDRFTISQDNAKNTVYLQMNSLKPEDTAMYYCAARTYGTISLTPSDYRYWGQGTLVTVSS
modifications: Camelid

Experiments:
MDA-MB-231 cells = assay: MTT proliferation assay, MDA-MB-231; format: cell-based, human; settings: for Mean Absorbance (570 nM) ± S.E., Overall Mean: mean of 4 experiments; for Mean Growth Inhibition: individual experiments 1-4;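 for all read-outs here: cultures held at 37 °C in humidified 5% CO2, treated groups compared against vehicle-treated controls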
TNF-alpha = biological target: T1, TNF-alpha (Homo sapiens, UniProt P01375); assay: Inhibition of TNF-alpha cytotoxicity against U937 by anti-TNF-alpha sdAbs; format: cell-based; settings: constant dose of TNF-alpha at EC50
T1 construct: host or cells: added exogenously to U937 cells
T1 sequence (P01375 77-233 limits assumed): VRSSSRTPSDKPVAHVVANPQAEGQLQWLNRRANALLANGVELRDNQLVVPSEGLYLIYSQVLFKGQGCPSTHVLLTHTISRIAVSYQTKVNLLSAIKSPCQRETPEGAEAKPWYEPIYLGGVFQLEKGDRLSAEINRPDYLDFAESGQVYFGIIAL

Row | Molecule | Mean Absorbance (570 nM) ± S.E. (MDA-MB-231 cells; Day 3, 10.0 μg/ml, individual experiments 1-4 (Table 6)) | Mean Absorbance (570 nM) ± S.E., Overall Mean (MDA-MB-231 cells; Day 3, 10.0 μg/ml) | Mean Absorbance (570 nM) ± S.E. (MDA-MB-231 cells; Day 3, 100 μg/ml, individual experiments 1-4 (Table 6)) | Mean Absorbance (570 nM) ± S.E., Overall Mean (MDA-MB-231 cells; Day 3, 100 μg/ml) | Mean Absorbance (570 nM) ± S.E. (MDA-MB-231 cells; Day 5, 10.0 μg/ml, individual experiments 1-4 (Table 7)) | Mean Absorbance (570 nM) ± S.E., Overall Mean (MDA-MB-231 cells; Day 5, 10.0 μg/ml) | Mean Absorbance (570 nM) ± S.E. (MDA-MB-231 cells; Day 5, 100 μg/ml, individual experiments 1-4 (Table 7)) | Mean Absorbance (570 nM) ± S.E., Overall Mean (MDA-MB-231 cells; Day 5, 100 μg/ml) | Mean Growth Inhibition (MDA-MB-231 cells; post 3 days, 10.0 μg/ml) | Mean Growth Inhibition (MDA-MB-231 cells; post 3 days, 100 μg/ml) | Mean Growth Inhibition (MDA-MB-231 cells; post 5 days, 10.0 μg/ml) | Mean Growth Inhibition (MDA-MB-231 cells; post 5 days, 100 μg/ml) | inhibition of killing of U937 by TNF-alpha (TNF-alpha)
1 | B1 | 0.456 ± 0.048 and 0.499 ± 0.018 and 0.502 ± 0.048 and 0.559 ± 0.041 | 0.504 ± 0.021 | 0.255 ± 0.005 and 0.357 ± 0.019 and 0.308 ± 0.021 and 0.287 ± 0.021 | 0.302 ± 0.043 | 0.640 ± 0.011 and 0.338 ± 0.023 and 0.930 ± 0.044 and 0.842 ± 0.052 | 0.688 ± 0.131 | 0.549 ± 0.023 and 0.274 ± 0.032 and 0.578 ± 0.039 and 0.499 ± 0.036 | 0.475 ± 0.0690 | 23.1% and 20.0% and 38.5% and 23.3% | 57.0% and 42.8% and 62.3% and 60.6% | 5.5% and 25.9% and 5.4% and 22.9% | 18.9% and 39.9% and 41.2% and 54.3% | –
2 | B2 | – | – | – | – | – | – | – | – | – | – | – | – | inhibit killing of U937 by TNF-alpha
3 | B3 | – | – | – | – | – | – | – | – | – | – | – | – | inhibit killing of U937 by TNF-alpha
